Columns and labels:
Assay in all cases: pull-down; partially purified recombinant proteins mixed and incubated overnight at 4°C, GSTrap columns, washed with 50 mM Tris pH 7.5, 150 mM NaCl, eluted with 10 mM reduced glutathione; Western blot with anti-His6 antibody, bands quantified with Image J, pulldown by GST-CD-Nef set to 100%
[1] = target: GST-MHC-I CD-Nef (human | HIV-1) (UniProt P03406)
[2] = target: GST-MHC-I CD-Nef LL/AA (human | HIV-1) (UniProt P03406)
[3] = target: GST-CD-Nef E62-65A,LL/AA (human | HIV-1) (UniProt P03406)
[4] = target: GST-CD-Nef M20A,LL/AA (human | HIV-1) (UniProt P03406)
[5] = target: GST-CD-Nef P78A,LL/AA (human | HIV-1) (UniProt P03406)
[6] = target: GST-CD(Y320A)-NefLL/AA (human | HIV-1) (UniProt P03406)

Molecule	pulldown efficiency (% of the pulldown of wild-type μ1 by GST-CD-Nef) [1]	pulldown efficiency (% of the pulldown of μ1 by GST-CD-Nef) [2]	pulldown efficiency (% of the pulldown of μ1 by GST-CD-Nef) [3]	pulldown efficiency (% of the pulldown of μ1 by GST-CD-Nef) [4]	pulldown efficiency (% of the pulldown of μ1 by GST-CD-Nef) [5]	pulldown efficiency (% of the pulldown of μ1 by GST-CD-Nef) [6]
truncated μ1 mutant F172A/D174S (domain or fragment)	57%					
truncated μ1 mutant V392A/L395A (domain or fragment)	24%					
μ121 (AP-1 medium subunit μ1, residues 121–423) (domain or fragment) GYPQTTDSKILQEYITQEGHKLETGAPRPPATVTNAVSWRSEGIKYRKNEVFLDVIEAVNLLVSANGNVLRSEIVGSIKMRVFLSGMPELRLGLNDKVLFDNTGRGKSKSVELEDVKFHQCVRLSRFENDRTISFIPPDGEFELMSYRLNTHVKPLIWIESVIEKHSHSRIEYMVKAKSQFKRRSTANNVEIHIPVPNDADSPKFKTTVGSVKWVPENSEIVWSVKSFPGGKEYLMRAHFGLPSVEAEDKEGKPPISVKFEIPYFTTSGIQVRYLKIIEKSGYQALPWVRYITQNGDYQLRTQ		77%	30%	53%	19%	16%
